Laboratory results: US20260069689A1

Biological target: T1, human CD20 on Jurkat cells (human) (UniProt P11836)
T1 sequence: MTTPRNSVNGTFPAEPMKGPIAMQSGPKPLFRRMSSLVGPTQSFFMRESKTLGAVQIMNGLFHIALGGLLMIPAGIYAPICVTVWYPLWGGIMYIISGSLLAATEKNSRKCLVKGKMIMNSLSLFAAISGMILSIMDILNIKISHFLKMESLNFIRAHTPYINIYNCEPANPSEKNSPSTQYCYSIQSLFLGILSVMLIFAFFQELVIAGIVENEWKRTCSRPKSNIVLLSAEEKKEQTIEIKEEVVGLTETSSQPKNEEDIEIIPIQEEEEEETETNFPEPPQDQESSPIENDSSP
Assay: cell-based or functional assay

casirivimab + imdevimab showed a Max ADCP (%), MDM donor #1, Jurkat/hCD20 cells of 15.5%, a Max ADCP (%), MDM donor #2, Jurkat/hCD20 cells of 15.1% and a Max cytotoxicity (%), ADCC, NK donor #1, Jurkat/hCD20 cells of 0.8%. The Max cytotoxicity (%), ADCC, NK donor #2, Jurkat/hCD20 cells was 4.8% and the Max cytotoxicity (%), ADCC, NK donor #3, Jurkat/hCD20 cells was 0%.
